Tests used:
[1] = system: established murine cancers; details: ref [17]; cited from earlier work
Text: The state of lymphopenia following high-dose chemotherapy appears to provide a window of enhanced responsiveness to immunotherapy. Additionally, certain chemotherapeutic drugs may assist in breaking immune tolerance by preferentially inhibition of Tregs, [47]. Nonetheless, chemotherapy alone is never sufficient to break tolerance to tumors probably because the original tolerogenic mechanisms rapidly restore tolerance following each cycle of chemotherapy. In principle, therefore, chemotherapy might provide an environment in which IDO-based immunotherapy could have a synergistic ...

[2] = system: breast cancer cell line MDA-MB-231; experiment: 51Cr-release assay, MDA-MB-231; assay type: cell-based; details: IFN-γ 100 U/ml for 2 days
Protocol: (§1) Conventional ^51Cr-release assays for CTL-mediated cytotoxicity was carried out as described elsewhere. Target cells were T2-cells, in vitro generated autologous immature DC (iDC) and matured DC (mDC), in vitro generated allogeneic HLA-A2^+ iDC and mDC, autologous ex vivo isolated monocytes, T cells and B cells (isolated using CD14^+, CD3^+ or CD19^+ microbeads (MACS)), the natural killer target cell line K562, ex vivo enriched HLA-A2^+ AML-blasts (B and T cells were depleted from the bone marrow of AML patients using CD19^+ and CD3^+ microbeads (MACS)), the breast cancer cell lines CAMA-1 and MDA-MB-231, as well as the colon cancer cell lines HCT-116 and SW480 (all available at the American Type Culture Collection (ATCC)), and FM55M [27]. Lysis were blocked using the HLA specific mAb W6/32 (2 µg/100 µl). In some assays, target cells were treated with 100 U/ml IFN-γ for 2 days.
(§2) Figure 5 Functional capacity of IDO5-specific T cells to kill cancer cell lines treated with IFN-γ for up-regulation of IDO, or treated with IDO ShRNA for down-regulation of IDO. […] Intracellular IDO expression was given by a one-tailed two sampled t-test comparing MFIIDO (dark histograms) and MFIIsotype control (light histograms), where MFI is the Mean Fluorescence Intensity. […]

[3] = system: HLA-A2 on CAMA-1 and MDA-MB-231; experiment: HLA-A2 surface staining, breast cancer cell lines; assay type: cell-based
Protocol: Cancer cells were examined for HLA-A2 expression using flow cytometry. Cells were stained with a fluorochrome-coupled HLA-A2 mAb (BD Bioscience). For comparison, cells were stained with an isotype matched control. The samples were analyzed on BD FACS Aria, using DIVA software (BD Biosciences). Assuming normality, HLA-A2 expression was given by a one-tailed two sampled t-test comparing MFIHLA-A2 and MFIIsotype control, where MFI is the Mean Fluorescence Intensity. For p-values <0.05 (significance level) cells were defined HLA-A2^+. The fold of expression was defined as MFIHLA-A2/MFIIsotype control.
(§3) Statistical analysis was performed on data on intracellular IDO staining. Assuming normality, intracellular IDO expression was given by a one-tailed two sampled t-test comparing MFIIDO and MFIIsotype control, where MFI is the Mean Fluorescence Intensity. For p-values <0.05 (significance level) cells were defined IDO^+. […] HLA-A2 expression was determined using the same approach.
as §2

[4] = system: breast cancer cell line CAMA-1; experiment: 51Cr-release assay, CAMA-1; assay type: cell-based; details: IFN-γ 100 U/ml for 2 days
Protocol: as §1, §2

[5] = system: IDO in CAMA-1 and MDA-MB-231; experiment: Intracellular IDO staining, breast cancer cell lines; assay type: cell-based
Protocol: PBMC, DC, and cancer cells were examined for intracellular IDO expression using flow cytometry. After fixation and permeabilization (Cytofix/Cytoperm, BD), cells were stained with anti-IDO antibody (Millipore Corporation). For comparison, cells were stained with an isotype matched control (Millipore Corporation). After incubation, cells were washed twice with Perm/Washbuffer (BD) before staining with a FITC-labeled secondary antibody (DAKO). The samples were analyzed on BD FACS Aria, using DIVA software (BD Biosciences). Assuming normality, intracellular IDO expression was given by a one-tailed two sampled t-test comparing MFIIDO and MFIIsotype control, where MFI is the Mean Fluorescence Intensity. […]
as §3, with “Intensity.” for “Intensity. For p-values <0.05 (significance level) cells were defined IDO^+.”
as §2

[6] = system: autologous CD14^+ monocytes, CD3^+ T cells and CD19^+ B cells; experiment: 51Cr-release assay, autologous monocytes, T cells and B cells; assay type: cell-based; details: CD19^+ B cells after IFN-γ treatment
Text: Target cells were T2-cells, in vitro generated autologous immature DC (iDC) and matured DC (mDC), in vitro generated allogeneic HLA-A2^+ iDC and mDC, autologous ex vivo isolated monocytes, T cells and B cells (isolated using CD14^+, CD3^+ or CD19^+ microbeads (MACS)), the natural killer target cell line K562, ex vivo enriched HLA-A2^+ AML-blasts (B and T cells were depleted from the bone marrow of AML patients using CD19^+ and CD3^+ microbeads (MACS)), the breast cancer cell lines CAMA-1 and MDA-MB-231, as well as the colon cancer cell lines HCT-116 and SW480 (all available at the American Type Culture Collection (ATCC)), and FM55M [27]. Lysis were blocked using the HLA specific mAb W6/32 (2 µg/100 µl) [28]. In some assays, target cells were treated with 100 U/ml IFN-γ for 2 days.
Next, we tested the ability of RBS35 to lyse autologous monoctyes, T cells and B cells. For this purpose, we isolated CD14^+ monocytes, CD3^+ T cells and CD19^+ B cells directly ex vivo from IDO^+ PBMC. The isolated cells were subsequently used as target cells in a ^51Cr-release assay.
All assays were performed in different E∶T ratios. […] ( c ), Lysis of autologous CD14^+ monocytes, CD3^+ T cells and CD19^+ B cells isolated directly ex vivo from IDO^+ PBMC, and lysis of autologous CD14^+ monocytes, CD3^+ T cells and CD19^+ B cells after IFN-γ treatment. […]

[7] = CAMA-1 and MDA-MB-231, IFN-γ 100 U/ml for 2 days

Molecule	Synergy with chemotherapy drugs [1]	Effect on killing of MDA-MB-231 by RBS35 [2]	Fold of HLA-A2 expression (printed as MFIIDO/MFIHLA-A2) ([3]; CAMA-1 + IFN-γ treatment, p = 0.002, before treatment 43.7 (p = 0.004), representative of 3 experiments)	HLA-A2 expression after treatment [3, 7]	Effect on killing of CAMA-1 by RBS35 [4]	Fold of IDO expression, MFIIDO/MFIIsotype control ([5]; CAMA-1 + IFN-γ treatment, p = 0.004, before treatment 2.3 (p = 0.020), representative of 3 experiments)	IDO expression after treatment [5, 7]	Effect of IFN-γ on killing of autologous immune cells by RBS35 [6]
Cn1cc(C[C@H](N)C(=O)O)c2ccccc21 [1-Methyl-Tryptophan]	work synergistically with different chemotherapy drugs in established murine cancers							
IFN-γ: IFN-γ, 100 U/ml for 2 days (protein, UniProt P01579 24-161, looked up) Interferon gamma: QDPYVKEAENLKKYFNAGHSDVADNGTLFLGILKNWKEESDRKIMQSQIVSFYFKLFKNFKDDQSIQKSVETIKEDMNVKFFNSNKKKRDDFEKLTNYSVTDLNVQRKAIHELIQVMAELSPAAKTGKRKRSQMLFRG		introduced killing of the MDA-MB-231 cells	141.2	increased the expression of IDO and HLA-A2 in both cell lines	increased the killing by RBS35 of CAMA-1	3.5	increased the expression of IDO and HLA-A2 in both cell lines	introduced killing of the CD14^+ monocytes, but not of the T and B cells

From paper PMC2734165, “The Immune System Strikes Back: Cellular Immune Responses against Indoleamine 2,3-dioxygenase” (PLoS ONE, 2009)
